Results published in PMC7144941.

T1: i-mEndoG H97A (catalytically inactive mouse endonuclease G) (mouse, UniProt O08600 42-294, H138A)
T1 sequence: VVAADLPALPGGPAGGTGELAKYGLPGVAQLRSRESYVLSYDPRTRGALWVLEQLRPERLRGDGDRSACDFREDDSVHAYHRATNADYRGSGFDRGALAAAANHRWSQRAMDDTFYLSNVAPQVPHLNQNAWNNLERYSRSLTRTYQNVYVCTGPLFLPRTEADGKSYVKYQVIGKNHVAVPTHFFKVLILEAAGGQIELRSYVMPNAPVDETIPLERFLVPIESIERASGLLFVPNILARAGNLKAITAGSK


Key:
[1] = molecular target: catalytically inactive H97A mutant of mouse endonuclease G lacking the N-terminal mitochondrial localization sequence (mouse); assay: crystal structure
[2] = molecular target: T1, i-mEndoG H97A (catalytically inactive …); assay: X-ray crystallography

stoichiometry N [1] | Molecule | binding result [2]
2 | catalytically inactive H97A mutant of mouse endonuclease G lacking the N-terminal mitochondrial localization sequence (enzyme) | 
 | decanucleotide d(CCGGCGCCGG) (dsDNA) DNA 1: CCGGCGCCGG DNA 2: CCGGCGCCGG | binds
